Laboratory results as given in IntAct's records for PubMed 31515488.

B1: Ribonuclease P protein subunit p25-like protein (Homo sapiens), Q8N5L8 (parent)
chain: MEHYRKAGSVELPAPSPMPQLPPDTLEMRVRDGSKIRNLLGLALGRLEGGSARHVVFSGSGRAAGKAVSCAEIVKRRVPGLHQLTKLRFLQTEDSWVPASPDTGLDPLTVRRHVPAVWVLLSRDPLDPNECGYQPPGAPPGLGSMPSSSCGPRSRRRARDTRS
partner: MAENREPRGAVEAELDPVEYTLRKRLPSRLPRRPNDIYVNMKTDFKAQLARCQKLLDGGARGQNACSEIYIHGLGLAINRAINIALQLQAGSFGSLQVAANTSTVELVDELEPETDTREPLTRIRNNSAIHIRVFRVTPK
B2: Microtubule-associated tumor suppressor candidate 2 (Homo sapiens), Q5JR59-3 (parent)
chain: MGHCCCKPYNCLQCLDKTNESALVKEKELSIELANIRDEVAFHTAKCEKLQKEKEELERRFEDEVKRLGWQQQAELQELEERLQLQFEAEMARLQEEHGDQLLSIRCQHQEQVEDLTASHDAALLEMENNHTVAITILQDDHDHKVQELMSTHELEKKELEENFEKLRLSLQDQVDTLTFQSQSLRDRARRFEEALRKNTEEQLEIALAPYQHLEEDMKSLKQVLEMKNQQIHEQEKKILELEKLAEKNIILEEKIQVLQQQNEDLKARIDQNTVVTRQLSEENANLQEYVEKETQEKKRLSRTNEELLWKLQTGDPTSPIKLSPTSPVYRGSSSGPSSPARVSTTPR
partner: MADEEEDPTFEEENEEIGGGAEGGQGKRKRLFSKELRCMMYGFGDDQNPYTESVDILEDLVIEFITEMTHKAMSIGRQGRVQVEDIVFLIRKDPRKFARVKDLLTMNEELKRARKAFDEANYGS
B3: Cyclic AMP-responsive element-binding protein 3-like protein 1 (Homo sapiens), Q96BA8 (parent)
chain: MDAVLEPFPADRLFPGSSFLDLGDLNESDFLNNAHFPEHLDHFTENMEDFSNDLFSSFFDDPVLDEKSPLLDMELDSPTPGIQAEHSYSLSGDSAPQSPLVPIKMEDTTQDAEHGAWALGHKLCSIMVKQEQSPELPVDPLAAPSAMAAAAAMATTPLLGLSPLSRLPIPHQAPGEMTQLPVIKAEPLEVNQFLKVTPEDLVQMPPTPPSSHGSDSDGSQSPRSLPPSSPVRPMARSSTAISTSPLLTAPHKLQGTSGPLLLTEEEKRTLIAEGYPIPTKLPLTKAEEKALKRVRRKIKNKISAQESRRKKKEYVECLEKKVETFTSENNELWKKVETLENANRTLLQQLQKLQTLVTNKISRPYKMAATQTGTCLMVAALCFVLVLGSLVPCLPEFSSGSQTVKEDPLAADGVYTASQMPSRSLLFYDDGAGLWEDGRSTLLPMEPPDGWEINPGGPAEQRPRDHLQHDHLDSTHETTKYLSEAWPKDGGNGTSPDFSHSKEWFHDRDLGPNTTIKLS
partner: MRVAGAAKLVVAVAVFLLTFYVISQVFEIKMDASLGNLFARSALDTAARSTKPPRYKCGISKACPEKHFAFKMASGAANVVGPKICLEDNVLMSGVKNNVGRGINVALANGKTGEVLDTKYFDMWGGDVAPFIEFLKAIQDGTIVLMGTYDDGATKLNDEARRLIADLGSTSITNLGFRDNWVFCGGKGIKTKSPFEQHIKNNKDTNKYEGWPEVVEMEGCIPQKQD
B4: Protein SSX5 (Homo sapiens), O60225 (parent)
chain: MNGDDAFVRRPRVGSQIPEKMQKAFDDIAKYFSEKEWEKMKASEKIIYVYMKRKYEAMTKLGFKATLPPFMRNKRVADFQGNDFDNDPNRGNQVEHPQMTFGRLQGIFPKITPEKPAEEGNDSKGVPEASGPQNNGKQLRPSGKLNTSEKVNKTSGPKRGKHAWTHRVRERKQLVIYEEISDPQEDDE
B5: Proteasome subunit beta type-1 (Homo sapiens), P20618 (parent)
chain: MLSSTAMYSAPGRDLGMEPHRAAGPLQLRFSPYVFNGGTILAIAGEDFAIVASDTRLSEGFSIHTRDSPKCYKLTDKTVIGCSGFHGDCLTLTKIIEARLKMYKHSNNKAMTTGAIAAMLSTILYSRRFFPYYVYNIIGGLDEEGKGAVYSFDPVGSYQRDSFKAGGSASAMLQPLLDNQVGFKNMQNVEHVPLSLDRAMRLVKDVFISAAERDVYTGDALRICIVTKEGIREETVSLRKD
partner: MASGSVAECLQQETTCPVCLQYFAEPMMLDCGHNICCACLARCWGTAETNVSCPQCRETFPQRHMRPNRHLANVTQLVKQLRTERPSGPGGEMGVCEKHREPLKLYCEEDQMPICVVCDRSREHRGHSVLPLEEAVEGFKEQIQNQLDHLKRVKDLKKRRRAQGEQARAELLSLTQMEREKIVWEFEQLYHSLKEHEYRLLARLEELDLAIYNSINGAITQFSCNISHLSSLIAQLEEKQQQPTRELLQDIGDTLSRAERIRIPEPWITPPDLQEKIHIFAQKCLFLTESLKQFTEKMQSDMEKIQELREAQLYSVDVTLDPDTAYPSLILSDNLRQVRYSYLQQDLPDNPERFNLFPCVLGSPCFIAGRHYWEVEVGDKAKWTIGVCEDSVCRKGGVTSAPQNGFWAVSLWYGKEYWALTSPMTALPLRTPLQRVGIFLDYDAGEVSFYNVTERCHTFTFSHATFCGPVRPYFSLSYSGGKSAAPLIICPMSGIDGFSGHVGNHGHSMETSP
B6: Proline-rich protein 3 (Homo sapiens), P79522 (parent)
chain: MPKRKKQNHHQPPTQQQPPLPEREETGDEEDGSPIGPPSLLGPPPMANGKPGDPKSALHRGPPGSRGPLIPPLLSLPPPPWGRGPIRRGLGPRSSPYGRGWWGVNAEPPFPGPGHGGPTRGSFHKEQRNPRRLKSWSLIKNTCPPKDDPQVMEDKSDRPVCRHFAKKGHCRYEDLCAFYHPGVNGPPL
partner: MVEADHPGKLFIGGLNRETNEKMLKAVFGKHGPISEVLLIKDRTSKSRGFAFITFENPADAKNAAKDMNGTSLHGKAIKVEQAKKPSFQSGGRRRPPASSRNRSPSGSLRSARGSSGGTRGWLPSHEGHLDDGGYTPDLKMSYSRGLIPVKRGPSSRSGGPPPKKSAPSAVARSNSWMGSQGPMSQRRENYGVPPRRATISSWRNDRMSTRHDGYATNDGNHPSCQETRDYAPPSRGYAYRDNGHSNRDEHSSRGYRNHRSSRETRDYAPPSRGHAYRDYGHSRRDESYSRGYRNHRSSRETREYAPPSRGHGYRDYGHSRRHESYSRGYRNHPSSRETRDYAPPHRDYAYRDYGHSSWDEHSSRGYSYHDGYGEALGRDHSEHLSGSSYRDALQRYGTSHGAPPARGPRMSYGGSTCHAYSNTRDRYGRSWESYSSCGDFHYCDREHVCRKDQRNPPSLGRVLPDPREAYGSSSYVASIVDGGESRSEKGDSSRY
B7: Protein FAM9B (Homo sapiens), Q8IZU0 (parent)
chain: MAAWGKKHAGKDPVRDECEERNRFTETREEDVTDEHGEREPFAETDEHTGANTKKPEDTAEDLTAKRKRMKMDKTCSKTKNKSKHALRKKQLKRQKRDYIHSLKLLNVLEEYITDEQKEEEEEEGEEEELIRIFQEQQKKWQQYRSVRRERLKEMKLLRDQFVKALEDFEDLCDRVFSDEDSELDN
partner: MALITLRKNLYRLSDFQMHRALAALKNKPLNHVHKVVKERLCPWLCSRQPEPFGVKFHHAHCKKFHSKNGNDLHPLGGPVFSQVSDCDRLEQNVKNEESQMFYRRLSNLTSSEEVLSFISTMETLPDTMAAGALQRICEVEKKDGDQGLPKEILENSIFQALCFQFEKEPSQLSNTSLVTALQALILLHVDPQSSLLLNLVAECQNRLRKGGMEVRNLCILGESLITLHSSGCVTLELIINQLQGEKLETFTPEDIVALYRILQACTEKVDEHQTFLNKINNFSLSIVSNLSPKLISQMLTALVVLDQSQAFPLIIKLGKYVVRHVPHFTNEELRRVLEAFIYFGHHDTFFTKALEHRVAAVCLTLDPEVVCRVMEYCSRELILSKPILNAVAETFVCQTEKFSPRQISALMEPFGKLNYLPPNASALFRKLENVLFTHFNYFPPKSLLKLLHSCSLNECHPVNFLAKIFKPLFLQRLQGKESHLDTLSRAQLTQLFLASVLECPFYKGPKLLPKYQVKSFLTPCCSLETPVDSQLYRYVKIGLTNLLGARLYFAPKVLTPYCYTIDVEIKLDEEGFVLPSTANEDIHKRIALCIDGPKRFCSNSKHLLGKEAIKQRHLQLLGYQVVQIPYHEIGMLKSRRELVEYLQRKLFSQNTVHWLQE
B8: G patch domain and ankyrin repeat-containing protein 1 (Homo sapiens), O95872 (parent)
chain: MSRPLLITFTPATDPSDLWKDGQQQPQPEKPESTLDGAAARAFYEALIGDESSAPDSQRSQTEPARERKRKKRRIMKAPAAEAVAEGASGRHGQGRSLEAEDKMTHRILRAAQEGDLPELRRLLEPHEAGGAGGNINARDAFWWTPLMCAARAGQGAAVSYLLGRGAAWVGVCELSGRDAAQLAEEAGFPEVARMVRESHGETRSPENRSPTPSLQYCENCDTHFQDSNHRTSTAHLLSLSQGPQPPNLPLGVPISSPGFKLLLRGGWEPGMGLGPRGEGRANPIPTVLKRDQEGLGYRSAPQPRVTHFPAWDTRAVAGRERPPRVATLSWREERRREEKDRAWERDLRTYMNLEF
partner: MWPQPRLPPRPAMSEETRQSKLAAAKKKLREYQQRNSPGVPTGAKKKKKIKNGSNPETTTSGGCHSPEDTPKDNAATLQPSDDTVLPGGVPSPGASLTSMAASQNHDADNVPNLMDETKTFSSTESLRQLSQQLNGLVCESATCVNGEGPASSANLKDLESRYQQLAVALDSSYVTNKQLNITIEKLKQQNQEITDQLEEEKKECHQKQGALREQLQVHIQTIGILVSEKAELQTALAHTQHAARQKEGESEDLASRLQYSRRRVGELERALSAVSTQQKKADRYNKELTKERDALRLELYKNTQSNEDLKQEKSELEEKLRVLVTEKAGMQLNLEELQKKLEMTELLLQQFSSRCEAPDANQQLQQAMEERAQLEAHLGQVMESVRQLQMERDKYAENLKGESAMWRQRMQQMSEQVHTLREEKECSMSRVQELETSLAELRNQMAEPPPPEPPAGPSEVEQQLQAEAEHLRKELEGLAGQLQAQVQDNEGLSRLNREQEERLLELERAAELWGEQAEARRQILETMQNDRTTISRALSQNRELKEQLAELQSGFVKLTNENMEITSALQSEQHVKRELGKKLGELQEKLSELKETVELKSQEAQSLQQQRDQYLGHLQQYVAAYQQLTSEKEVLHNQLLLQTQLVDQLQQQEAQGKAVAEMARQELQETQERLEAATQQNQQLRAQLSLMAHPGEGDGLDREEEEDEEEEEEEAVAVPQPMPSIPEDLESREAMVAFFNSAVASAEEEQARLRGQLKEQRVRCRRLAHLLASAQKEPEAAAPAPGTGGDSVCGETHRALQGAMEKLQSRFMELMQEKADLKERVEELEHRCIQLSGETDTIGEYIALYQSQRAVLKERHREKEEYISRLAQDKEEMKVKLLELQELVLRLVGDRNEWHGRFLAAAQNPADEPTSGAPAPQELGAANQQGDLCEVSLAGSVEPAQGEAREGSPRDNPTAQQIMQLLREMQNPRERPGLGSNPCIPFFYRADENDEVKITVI
B9: Zinc finger protein 581 (Homo sapiens), Q9P0T4 (parent)
chain: MLVLPSPCPQPLAFSSVETMEGPPRRTCRSPEPGPSSSIGSPQASSPPRPNHYLLIDTQGVPYTVLVDEESQREPGASGAPGQKKCYSCPVCSRVFEYMSYLQRHSITHSEVKPFECDICGKAFKRASHLARHHSIHLAGGGRPHGCPLCPRRFRDAGELAQHSRVHSGERPFQCPHCPRRFMEQNTLQKHTRWKHP
partner: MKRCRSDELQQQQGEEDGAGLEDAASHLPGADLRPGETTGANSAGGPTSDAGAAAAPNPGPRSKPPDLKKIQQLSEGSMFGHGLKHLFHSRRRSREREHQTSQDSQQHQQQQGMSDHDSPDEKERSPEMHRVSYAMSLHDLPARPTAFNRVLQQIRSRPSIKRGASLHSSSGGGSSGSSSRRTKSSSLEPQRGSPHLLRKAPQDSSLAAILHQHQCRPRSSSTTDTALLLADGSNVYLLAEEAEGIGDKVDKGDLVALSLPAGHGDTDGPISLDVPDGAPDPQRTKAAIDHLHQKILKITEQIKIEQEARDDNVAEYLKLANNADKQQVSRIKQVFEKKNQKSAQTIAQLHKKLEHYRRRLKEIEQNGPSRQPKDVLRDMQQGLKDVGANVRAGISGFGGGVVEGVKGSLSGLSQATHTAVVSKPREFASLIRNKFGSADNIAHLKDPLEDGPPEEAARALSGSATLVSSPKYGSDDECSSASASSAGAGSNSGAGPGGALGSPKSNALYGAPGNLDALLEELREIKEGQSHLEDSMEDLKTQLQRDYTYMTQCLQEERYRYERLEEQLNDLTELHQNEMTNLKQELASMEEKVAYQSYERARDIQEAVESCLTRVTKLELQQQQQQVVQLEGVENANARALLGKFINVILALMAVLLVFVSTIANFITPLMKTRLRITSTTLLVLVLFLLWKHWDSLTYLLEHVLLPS

Variants of: B1
Conditions: with pop7_human POP7, O75817

Row | Variant | effect of a mutation on the interaction
1 | D127N | with no effect

Variants of: B2
Conditions: with taf13_human TAF13, Q15543

Row | Variant | effect of a mutation on the interaction
2 | A89V | with no effect

Variants of: B3
Conditions: with fam3c_human FAM3C

Row | Variant | effect of a mutation on the interaction
3 | I516S | with no effect
4 | A152T | with no effect

Variants of: B4
Conditions: with atrap_human AGTRAP

Row | Variant | effect of a mutation on the interaction
5 | K20N | with no effect

Variants of: B5
Conditions: with tri27_human TRIM27, P14373

Row | Variant | effect of a mutation on the interaction
6 | P11A | with no effect

Variants of: B6
Conditions: with rby1f_human RBMY1F

Row | Variant | effect of a mutation on the interaction
7 | R87W | with no effect

Variants of: B7
Conditions: with fakd3_human FASTKD3, Q14CZ7

Row | Variant | effect of a mutation on the interaction
8 | R23H | with no effect

Variants of: B8
Conditions: with goga2_human GOLGA2, Q08379

Row | Variant | effect of a mutation on the interaction
9 | R41L | with no effect

Variants of: B9
Conditions: with tmcc2_human TMCC2, O75069

Row | Variant | effect of a mutation on the interaction
10 | R143W | with no effect
11 | E32A | with no effect
